Source: US12291570B2, “Treatment of metastatic pancreatic adenocarcinoma” (BioLineRx Ltd., priority 2018, dated 2025)
pIC50: −log10 of the molar value. Square brackets hold non-standard residues; d marks the D form. Ends that are not written are not given here. 2Nal = N[C@@H](Cc1ccc2ccccc2c1)C(=O)O; Cit = NC(=O)NCCC[C@H](N)C(=O)O

Tests used:
[1] = system: metastatic pancreatic cancer; settings: metastatic/advanced pancreatic cancer; cited from earlier work
[2] = system: metastatic pancreatic adenocarcinoma (PDAC); settings: cited from earlier work
CXCR4 = CXCR4 (Homo sapiens, UniProt P61073); settings: read-out: IC50, binds to CXCR4 with high affinity; cited from earlier work
[3] = system: human keratinocytes and normal human hematopoietic cells; settings: cited from earlier work
[4] = Solubility of BL-8040 powder; assay type: physicochemical

Chain of CXCR4 (P61073 whole entry, species assumed): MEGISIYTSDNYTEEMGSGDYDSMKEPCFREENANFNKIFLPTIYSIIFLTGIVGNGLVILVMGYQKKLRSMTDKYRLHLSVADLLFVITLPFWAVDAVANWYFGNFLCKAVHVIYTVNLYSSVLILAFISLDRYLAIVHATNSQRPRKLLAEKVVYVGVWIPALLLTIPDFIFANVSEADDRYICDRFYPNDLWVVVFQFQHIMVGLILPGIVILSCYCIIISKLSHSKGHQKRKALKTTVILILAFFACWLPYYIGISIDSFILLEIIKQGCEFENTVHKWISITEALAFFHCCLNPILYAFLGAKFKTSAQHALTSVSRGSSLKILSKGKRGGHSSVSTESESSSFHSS

| Substance | increase in median survival [1] [months] | level of effector CD8 cells that express Granzyme B in the tumor microenvironment [2] | level of myeloid derived suppressor cells (MDSCs) in the tumor microenvironment [2] | pIC50 (CXCR4) | effect on viability of human keratinocytes and normal human hematopoietic cells [3] | solubility in 0.45% Sodium Chloride (half normal saline) ([4]; 0.45% Sodium Chloride) | solubility in water ([4]; water) |
| --- | --- | --- | --- | --- | --- | --- | --- |
| FOLFIRINOX | 4.3 | – | – | – | – | – | – |
| BL-8040 (RR[2Nal]CY[Cit]K[dK]PYR[Cit]CR-NH2; not fully specified (residue 1, N-terminus, bridges); cysteine pairing not given here) | – | increasing | decreasing | 8.35 to 9.27 | did not affect the viability | freely soluble | freely soluble |
